Source: US20050272107A1 (MEDICAL RESEARCH COUNCIL, published 2005)

Legend:
[1] = target: RAS antigen of the BIAcore measurements; assay: SPR, BIAcore 2000
[2] = target: RAS antigen of the BIAcore measurements; assay: SPR, BIAcore 2000; Kd = koff/kon

B1: anti-RAS scFv33 (scFv)
chain: QVQLVEAGGGLVQPGGSLRLSCAASGFSFSTFSMNWVRQAPGKGLEWVSYISSSGRTIYYADSVKGRFTISRDNAKNSLYLQMNSLRDEDTAVYYCARGRFFDYWGQGTLVTVSSGGGGSGGGGSGGGGSDIVMTQSPSFLSASVGDRVTITCRASQSISRYLNWYQQKPGKAPKLLIYAASSLQSGVPSRFSGSGSGTDFTLTISSLQPEDFAIYYCQQSYSTLLTFGGGTKLEIKR
koff [1]: 0.00113 s⁻¹ | kon [1]: 176000 M⁻¹ s⁻¹ | Kd [2]: 9.97 nM
